Results on six molecules are retold here after patent US20170066831A1 (Janssen / Centocor, published 2017).

The target of test [1] is T1, cynomolgus (Macaca fascicularis) ST2L extracellular domain with C-terminal His6 tag (Macaca fascicularis (cynomolgus), UniProt Q01638 19-321 (human entry)).
T1 construct: also called cyno ST2L-ECD; cynoST2L-ECD
T1 chain: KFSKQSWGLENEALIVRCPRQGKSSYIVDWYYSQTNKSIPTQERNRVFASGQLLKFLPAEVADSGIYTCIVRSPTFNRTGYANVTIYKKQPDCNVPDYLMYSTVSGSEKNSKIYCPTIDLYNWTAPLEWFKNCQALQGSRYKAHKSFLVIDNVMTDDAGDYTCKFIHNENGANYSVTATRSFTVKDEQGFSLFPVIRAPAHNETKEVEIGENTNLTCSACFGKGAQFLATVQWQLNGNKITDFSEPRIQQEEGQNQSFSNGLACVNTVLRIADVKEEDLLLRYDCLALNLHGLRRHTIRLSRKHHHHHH
In words: ProteOn SPR, mAb captured, ST2L-ECD in solution. The method, then:
(§1) The affinities were analyzed by ProteOn. The experiments were performed at 25° C. using ProteOn's PBS-T-E buffer (PBS, 0.005% P20 and 3 mM EDTA) as running buffer. […] Mab capture was followed by injection of ST2L-ECD from 0.024-15 nM (5-fold dilutions) for 4 min (200 μL at 50 μL/min). The dissociation was monitored for 30 minutes for all reaction. Regeneration was performed using two 15 sec pulses of 10 mM glycine pH1.5. The data was fitted to a 1:1 with baseline drift model.
(§2) Association rates for the samples are fast, the langmuir with mass transfer model was used for curve fitting and estimation of Affinity. All of the samples had faster off rates than the parental clone and control Mab. The difference in off rate was the primary contributor to the lower affinity of the HFA variants when compared to the parent antibody.

Test [2] concerns the target T2, human ST2L extracellular domain with C-terminal His6 tag (human, UniProt Q01638 19-328).
T2 construct: also called huST2L-ECD; ST2L-ECD
T2 sequence: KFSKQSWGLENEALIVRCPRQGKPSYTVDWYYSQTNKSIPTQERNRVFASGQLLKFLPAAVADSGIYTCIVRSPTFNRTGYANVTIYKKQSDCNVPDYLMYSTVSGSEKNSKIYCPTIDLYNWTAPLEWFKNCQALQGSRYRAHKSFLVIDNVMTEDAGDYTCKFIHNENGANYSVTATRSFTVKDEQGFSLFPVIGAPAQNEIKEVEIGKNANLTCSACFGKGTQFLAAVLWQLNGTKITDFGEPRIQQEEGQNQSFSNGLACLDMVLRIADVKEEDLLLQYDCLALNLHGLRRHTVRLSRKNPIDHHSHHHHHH
The test is described as follows: ProteOn SPR, mAb captured, ST2L-ECD in solution. The protocol: as §1, §2

B1: STLM203 (antibody, V domains shown)
VH: EVQLVQSGAEVKKPGATVKISCKVSAFNIKDDYMHWVQQAPGKGLEWMGRIDPAIGNTEYAEKFQGRVTITADTSTDTAYMELSSLRSEDTAVYYCATGDFYAMDYWGQGTLVTVSS
VL: DIQMTQSPSSLSASVGDRVTITCITNTDIDDVIHWYQQKPGKAPKLLIYEGNTLRPGVPSRFSGSGSGTDFTLTISSLQPEDFATYYCLQSDNMLTFGQGTKLEIK
notes: C2494 HFA mAb: VH STLH194 + VL STLL274 (O12)
Broadly, the Kd is the free concentration of one partner at which half of the binding sites on the other are occupied at equilibrium, for simple one-to-one binding. Low values mean tighter binding, high ones weaker binding. As a reminder, the koff is a measure of how fast the partners let go of each other. Read a high koff as fast dissociation. What is called kon is the second-order rate constant of association. A higher kon goes with fast association. Consider B1, for which, in test [1], binding was characterised by a dissociation constant (Kd) of 0.111 nM, the koff turned out to be 0.00656 s⁻¹ and the kon was 5.88e+07 M⁻¹ s⁻¹. Besides, in test [2], the Kd was 0.0473 nM, the koff is 0.000967 s⁻¹ and the kon worked out at 2.04e+07 M⁻¹ s⁻¹.

B2: STLM187 (antibody, V domains shown)
VH: QVQLVQSGAEVKKPGASVKVSCKVSAFNIKDDYMHWVRQAPGKGLEWMGRIDPAIGNTEYAPKFQDRVTMTEDTSTDTAYMELSSLRSEDTAVYYCATGDFYAMDYWGQGTLVTVSS
VL: DIQMTQSPSSLSASVGDRVTITCITNTDIDDVIHWYQQKPGKAPKLLIYEGNTLRPGVPSRFSGSGSGTDFTLTISSLQPEDFATYYCLQSDNLLTFGQGTKLEIK
notes: C2494 HFA mAb: VH STLH195 (IGHV1-24*01) + VL STLL280 (O12b)
In test [1], B2 displayed a Kd of 1.1 nM, a koff of 0.11 s⁻¹ and a kon of 1e+08 M⁻¹ s⁻¹. In addition, in test [2], the Kd is 0.473 nM, the koff came to 0.0159 s⁻¹ and the kon is 3.37e+07 M⁻¹ s⁻¹.

B3: STLM191 (antibody, V domains shown)
VH: QVQLVQSGAEVKKPGASVKVSCKVSAFNIKDDYMHWVRQAPGKGLEWMGRIDPAIGNTEYAPKFQDRVTMTEDTSTDTAYMELSSLRSEDTAVYYCATGDFYAMDYWGQGTLVTVSS
VL: DIQMTQSPSTLSASVGDRVTITCITNTDIDDVIHWYQQKPGKAPKLLIYEGNTLRPGVPSRFSGSGSGTEFTLTISSLQPDDFATYYCLQSDNMLTFGQGTKLEIK
notes: C2494 HFA mAb: VH STLH195 + VL STLL276 (L12)
On to B3, for which, in test [1], binding was put at a Kd of 0.666 nM, the koff amounted to 0.0666 s⁻¹ and the kon was found to be 1e+08 M⁻¹ s⁻¹. Besides, in test [2], the Kd was 0.292 nM, the koff turned out to be 0.0247 s⁻¹ and the kon was 8.46e+07 M⁻¹ s⁻¹.

B4: STLM190 (antibody, V domains shown)
VH: QVQLVQSGAEVKKPGASVKVSCKVSAFNIKDDYMHWVRQAPGKGLEWMGRIDPAIGNTEYAPKFQDRVTMTEDTSTDTAYMELSSLRSEDTAVYYCATGDFYAMDYWGQGTLVTVSS
VL: DIQLTQSPSFLSASVGDRVTITCITNTDIDDVIHWYQQKPGKAPKLLIYEGNTLRPGVPSRFSGSGSGTEFTLTISSLQPEDFATYYCLQSDNMLTFGQGTKLEIK
notes: C2494 HFA mAb: VH STLH195 + VL STLL277 (L8)
As for B4, in test [1], the Kd amounted to 1.02 nM, the koff is 0.102 s⁻¹ and the kon worked out at 1e+08 M⁻¹ s⁻¹. In test [2], the Kd was determined as 0.534 nM, the koff came out at 0.0534 s⁻¹ and the kon is 1e+08 M⁻¹ s⁻¹.

B5: STLM192 (antibody, V domains shown)
VH: QVQLVQSGAEVKKPGASVKVSCKVSAFNIKDDYMHWVRQAPGKGLEWMGRIDPAIGNTEYAPKFQDRVTMTEDTSTDTAYMELSSLRSEDTAVYYCATGDFYAMDYWGQGTLVTVSS
VL: DIQMTQSPSSVSASVGDRVTITCITNTDIDDVIHWYQQKPGKAPKLLIYEGNTLRPGVPSRFSGSGSGTDFTLTISSLQPEDFATYYCLQSDNMLTFGQGTKLEIK
notes: C2494 HFA mAb: VH STLH195 + VL STLL275 (L5)
Consider B5, for which, in test [1], the Kd worked out at 0.999 nM, the koff amounted to 0.0999 s⁻¹ and the kon came out at 1e+08 M⁻¹ s⁻¹. In test [2], this molecule gave a Kd of 0.42 nM, a koff of 0.00885 s⁻¹ and a kon of 2.11e+07 M⁻¹ s⁻¹.

B6: STLM193 (antibody, V domains shown)
VH: QVQLVQSGAEVKKPGASVKVSCKVSAFNIKDDYMHWVRQAPGKGLEWMGRIDPAIGNTEYAPKFQDRVTMTEDTSTDTAYMELSSLRSEDTAVYYCATGDFYAMDYWGQGTLVTVSS
VL: DIQMTQSPSSLSASVGDRVTITCITNTDIDDVIHWYQQKPGKAPKLLIYEGNTLRPGVPSRFSGSGSGTDFTLTISSLQPEDFATYYCLQSDNMLTFGQGTKLEIK
notes: C2494 HFA mAb: VH STLH195 + VL STLL274 (O12)
In test [1], B6 displayed a Kd of 0.932 nM, a koff of 0.0932 s⁻¹ and a kon of 1e+08 M⁻¹ s⁻¹. In test [2], the Kd was 0.267 nM, the dissociation rate constant (koff) amounted to 0.0127 s⁻¹ and the kon is 4.77e+07 M⁻¹ s⁻¹.
